Experimental data taken from paper PMC3154423.

How the values were obtained:
Experiment in all cases: ITC
[1] = target: Jun bZIP R263A;Fos bZIP R155A (human;human, UniProt P05412;P01100 252-315;137-200, R263A|R155A)
[2] = target: Jun bZIP K273A;Fos bZIP R146A (human;human, UniProt P05412;P01100 252-315;137-200, K273A|R146A)
[3] = target: Jun bZIP R263A;Fos bZIP R144A (human;human, UniProt P05412;P01100 252-315;137-200, R263A|R144A)
[4] = target: Jun bZIP K268A;Fos bZIP R158A (human;human, UniProt P05412;P01100 252-315;137-200, K268A|R158A)
[5] = target: Jun bZIP R259A;Fos bZIP K148A (human;human, UniProt P05412;P01100 252-315;137-200, R259A|K148A)
Jun-Jun bZIP R259A = Jun-Jun bZIP R259A (human, UniProt P05412 252-315, R259A)
Jun-Jun bZIP K258A = Jun-Jun bZIP K258A (human, UniProt P05412 252-315, K258A)
[6] = target: Jun bZIP R261A;Fos bZIP K153A (human;human, UniProt P05412;P01100 252-315;137-200, R261A|K153A)
[7] = target: Jun bZIP R261A;Fos bZIP R143A (human;human, UniProt P05412;P01100 252-315;137-200, R261A|R143A)
[8] = target: Jun bZIP R270A;Fos bZIP K153A (human;human, UniProt P05412;P01100 252-315;137-200, R270A|K153A)
[9] = target: Jun bZIP R259A;Fos bZIP R144A (human;human, UniProt P05412;P01100 252-315;137-200, R259A|R144A)
Jun-Jun bZIP K273A = Jun-Jun bZIP K273A (human, UniProt P05412 252-315, K273A)
[10] = target: Jun bZIP R272A;Fos bZIP R143A (human;human, UniProt P05412;P01100 252-315;137-200, R272A|R143A)
[11] = target: Jun bZIP K273A;Fos bZIP K153A (human;human, UniProt P05412;P01100 252-315;137-200, K273A|K153A)
[12] = target: Jun bZIP R272A;Fos bZIP R155A (human;human, UniProt P05412;P01100 252-315;137-200, R272A|R155A)
Jun-Jun bZIP R261A = Jun-Jun bZIP R261A (human, UniProt P05412 252-315, R261A)
[13] = target: Jun bZIP R270A;Fos bZIP R157A (human;human, UniProt P05412;P01100 252-315;137-200, R270A|R157A)
Jun bZIP R270A;Fos bZIP R157A, sequence (P05412 252-315 R270A, chain 1 of 2): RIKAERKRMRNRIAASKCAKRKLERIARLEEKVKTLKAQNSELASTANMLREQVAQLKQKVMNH
Jun bZIP R270A;Fos bZIP R157A, sequence (P01100 137-200 R157A, chain 2 of 2): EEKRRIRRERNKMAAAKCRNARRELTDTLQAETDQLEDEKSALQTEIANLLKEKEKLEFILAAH

Jun-Jun bZIP K258A, sequence (P05412 252-315 K258A): as the sequence (P05412 252-315 R270A, chain 1 of 2) above, with K7A, A19R counted along it
Jun-Jun bZIP K273A, sequence (P05412 252-315 K273A): as the sequence (P05412 252-315 R270A, chain 1 of 2) above, with A19R, K22A counted along it
Jun bZIP K273A;Fos bZIP R146A, sequence (P05412 252-315 K273A, chain 1 of 2): as the sequence (P05412 252-315 R270A, chain 1 of 2) above, with A19R, K22A counted along it
Jun bZIP K273A;Fos bZIP R146A, sequence (P01100 137-200 R146A, chain 2 of 2): as the sequence (P01100 137-200 R157A, chain 2 of 2) above, with R10A, A21R counted along it
Jun bZIP K273A;Fos bZIP K153A, sequence (P05412 252-315 K273A, chain 1 of 2): as the sequence (P05412 252-315 R270A, chain 1 of 2) above, with A19R, K22A counted along it
Jun bZIP K273A;Fos bZIP K153A, sequence (P01100 137-200 K153A, chain 2 of 2): as the sequence (P01100 137-200 R157A, chain 2 of 2) above, with K17A, A21R counted along it
Jun bZIP R270A;Fos bZIP K153A, sequence (P05412 252-315 R270A, chain 1 of 2): as the sequence (P05412 252-315 R270A, chain 1 of 2) above
Jun bZIP R270A;Fos bZIP K153A, sequence (P01100 137-200 K153A, chain 2 of 2): as the sequence (P01100 137-200 R157A, chain 2 of 2) above, with K17A, A21R counted along it
Jun bZIP R272A;Fos bZIP R155A, sequence (P05412 252-315 R272A, chain 1 of 2): as the sequence (P05412 252-315 R270A, chain 1 of 2) above, with A19R, R21A counted along it
Jun bZIP R272A;Fos bZIP R155A, sequence (P01100 137-200 R155A, chain 2 of 2): as the sequence (P01100 137-200 R157A, chain 2 of 2) above, with R19A, A21R counted along it
Jun bZIP R272A;Fos bZIP R143A, sequence (P05412 252-315 R272A, chain 1 of 2): as the sequence (P05412 252-315 R270A, chain 1 of 2) above, with A19R, R21A counted along it
Jun bZIP R272A;Fos bZIP R143A, sequence (P01100 137-200 R143A, chain 2 of 2): as the sequence (P01100 137-200 R157A, chain 2 of 2) above, with R7A, A21R counted along it
Jun bZIP K268A;Fos bZIP R158A, sequence (P05412 252-315 K268A, chain 1 of 2): as the sequence (P05412 252-315 R270A, chain 1 of 2) above, with K17A, A19R counted along it
Jun bZIP K268A;Fos bZIP R158A, sequence (P01100 137-200 R158A, chain 2 of 2): as the sequence (P01100 137-200 R157A, chain 2 of 2) above, with A21R, R22A counted along it
Jun bZIP R263A;Fos bZIP R155A, sequence (P05412 252-315 R263A, chain 1 of 2): as the sequence (P05412 252-315 R270A, chain 1 of 2) above, with R12A, A19R counted along it
Jun bZIP R263A;Fos bZIP R155A, sequence (P01100 137-200 R155A, chain 2 of 2): as the sequence (P01100 137-200 R157A, chain 2 of 2) above, with R19A, A21R counted along it
Jun bZIP R263A;Fos bZIP R144A, sequence (P05412 252-315 R263A, chain 1 of 2): as the sequence (P05412 252-315 R270A, chain 1 of 2) above, with R12A, A19R counted along it
Jun bZIP R263A;Fos bZIP R144A, sequence (P01100 137-200 R144A, chain 2 of 2): as the sequence (P01100 137-200 R157A, chain 2 of 2) above, with R8A, A21R counted along it
Jun-Jun bZIP R261A, sequence (P05412 252-315 R261A): as the sequence (P05412 252-315 R270A, chain 1 of 2) above, with R10A, A19R counted along it
Jun bZIP R261A;Fos bZIP K153A, sequence (P05412 252-315 R261A, chain 1 of 2): as the sequence (P05412 252-315 R270A, chain 1 of 2) above, with R10A, A19R counted along it
Jun bZIP R261A;Fos bZIP K153A, sequence (P01100 137-200 K153A, chain 2 of 2): as the sequence (P01100 137-200 R157A, chain 2 of 2) above, with K17A, A21R counted along it
Jun bZIP R261A;Fos bZIP R143A, sequence (P05412 252-315 R261A, chain 1 of 2): as the sequence (P05412 252-315 R270A, chain 1 of 2) above, with R10A, A19R counted along it
Jun bZIP R261A;Fos bZIP R143A, sequence (P01100 137-200 R143A, chain 2 of 2): as the sequence (P01100 137-200 R157A, chain 2 of 2) above, with R7A, A21R counted along it
Jun-Jun bZIP R259A, sequence (P05412 252-315 R259A): as the sequence (P05412 252-315 R270A, chain 1 of 2) above, with R8A, A19R counted along it
Jun bZIP R259A;Fos bZIP R144A, sequence (P05412 252-315 R259A, chain 1 of 2): as the sequence (P05412 252-315 R270A, chain 1 of 2) above, with R8A, A19R counted along it
Jun bZIP R259A;Fos bZIP R144A, sequence (P01100 137-200 R144A, chain 2 of 2): as the sequence (P01100 137-200 R157A, chain 2 of 2) above, with R8A, A21R counted along it
Jun bZIP R259A;Fos bZIP K148A, sequence (P05412 252-315 R259A, chain 1 of 2): as the sequence (P05412 252-315 R270A, chain 1 of 2) above, with R8A, A19R counted along it
Jun bZIP R259A;Fos bZIP K148A, sequence (P01100 137-200 K148A, chain 2 of 2): as the sequence (P01100 137-200 R157A, chain 2 of 2) above, with K12A, A21R counted along it

B1: TRE duplex 15-mer (dsDNA)
DNA 1: CGCGTGACTCACCCC
DNA 2: GGGGTGAGTCACGCG
[1]
  Kd: 3880 ± 90 nM
[2]
  Kd: 680 ± 10 nM
[3]
  Kd: 4210 ± 200 nM
[4]
  Kd: 430 ± 20 nM
[5]
  Kd: 2260 ± 180 nM
Jun-Jun bZIP R259A
  Kd: 5250 ± 60 nM
Jun-Jun bZIP K258A
  Kd: 4430 ± 190 nM
[6]
  Kd: 610 ± 50 nM
[7]
  Kd: 1030 ± 50 nM
[8]
  Kd: 1610 ± 150 nM
[9]
  Kd: 15800 ± 620 nM
Jun-Jun bZIP K273A
  Kd: 6520 ± 750 nM
[10]
  Kd: 910 ± 70 nM
[11]
  Kd: 840 ± 50 nM
[12]
  Kd: 2670 ± 130 nM
Jun-Jun bZIP R261A
  Kd: 380 ± 20 nM
[13]
  Kd: 3560 ± 130 nM
